{"source": "paper PMC10246530", "binders": {"B1": {"name": "SL4 (structured_RNA)", "RNA": "GGGUGUGGCUGUCACUCGGCUGCAUGCUUAGUGCACUCACGCCC"}, "B2": {"name": "SL4ext (SL4_extSL4) (structured_RNA)", "RNA": "GGUCUGUGUGGCUGUCACUCGGCUGCAUGCUUAGUGCACUCACGCAGUAUAAUUAAUAACUAAUUACUG"}, "B3": {"name": "SL5 (structured_RNA)", "RNA": "GGUCGUUGACAGGACACGAGUAACUCGUCUAUCUUCUGCAGGCUGCUUACGGUUUCGUCCGUGUUGCAGCCGAUCAUCAGCACAUCUAGGUUUCGUCCGGGUGUGACCGAAAGGUAAGAUGGAGAGCCUUGUCCCUGGUUUCAACGAGAA"}, "B4": {"name": "Ext (ssRNA)", "RNA": "GGAUAAUUAAUAACUAAUUACU"}, "B5": {"name": "P2 (structured_RNA)", "RNA": "GGAUGAAGAUUUUCAAGAAAACUGGAACACUAA"}, "B6": {"name": "P3 (structured_RNA)", "RNA": "GCGUGGCAACCGGGUGUUGCUAUGCCUAAUCUUUACAAAAUGCAAAGA"}, "B7": {"name": "P3_B (structured_RNA)", "RNA": "GCCUAAUCUUUACAAAAUGCAAAGA"}, "B8": {"name": "SL1_extSL1 (structured_RNA)", "RNA": "GGUUUAUACCUUCCCAGGUAACAAACCAACCAACUUUC"}, "B9": {"name": "SL2+3 (structured_RNA)", "RNA": "GGCUUUCGAUCUCUUGUAGAUCUGUUCUCUAAACGAACUUUAA"}}, "key": {"[1]": {"target": "T1, SARS-CoV-2 nucleocapsid NTD (WT) (SARS-CoV-2 (reference genome …, UniProt P0DTC9 44-180))", "assay": "ITC", "details": "protein: recombinant; tags: cleaved tag; one artificial N-terminal Gly left; label: 5'-32P in EMSA; hairpin"}, "[2]": {"target": "T1, SARS-CoV-2 nucleocapsid NTD (WT)", "assay": "ITC; low-salt; NTD titrated to RNA", "details": "protein: recombinant; tags: cleaved tag; one artificial N-terminal Gly left; label: 5'-32P in EMSA; hairpin"}, "[3]": {"target": "T2, SARS-CoV-2 nucleocapsid NTD (WT) (SARS-CoV-2 (reference genome …, UniProt P0DTC9 44-180))", "assay": "EMSA; 1 mM Mg2+, yeast tRNA; apparent", "details": "protein: recombinant, tags: cleaved tag, one artificial N-terminal Gly left, label: 5'-32P in EMSA"}, "[4]": {"target": "T2, SARS-CoV-2 nucleocapsid NTD (WT)", "assay": "EMSA", "details": "protein: recombinant; tags: cleaved tag; one artificial N-terminal Gly left; label: 5'-32P in EMSA; branched stem-loops"}, "[5]": {"target": "T2, SARS-CoV-2 nucleocapsid NTD (WT)", "assay": "NMR; intermediate exchange", "details": "protein: recombinant; tags: cleaved tag; one artificial N-terminal Gly left; labile hairpin, Tm 36.5 C"}, "[6]": {"target": "T2, SARS-CoV-2 nucleocapsid NTD (WT)", "assay": "NMR; SL4ext-like", "details": "protein: recombinant; tags: cleaved tag; one artificial N-terminal Gly left"}, "[7]": {"target": "T2, SARS-CoV-2 nucleocapsid NTD (WT)", "assay": "NMR; SL4ext-like; stability confirmed by aSEC", "details": "protein: recombinant, tags: cleaved tag, one artificial N-terminal Gly left"}, "[8]": {"target": "T2, SARS-CoV-2 nucleocapsid NTD (WT)", "assay": "ITC; low-salt", "details": "protein: recombinant; tags: cleaved tag; one artificial N-terminal Gly left; hairpin with 3' ss extension"}}, "data": [{"binder": "B1", "values": [{"measurement": "Kd", "setting": "[1]", "value": 53, "unit": "µM"}, {"measurement": "Kd", "setting": "[2]", "value": 64, "unit": "µM"}]}, {"binder": "B2", "values": [{"measurement": "apparent K (half saturation)", "setting": "[3]; 15N-U/G for RNA-observed NMR, hairpin with 3' labile extension", "value": "~5", "unit": "µM"}]}, {"binder": "B3", "values": [{"measurement": "binding result", "setting": "[4]", "value": "binds"}]}, {"binder": "B4", "values": [{"measurement": "binding result", "setting": "[5]", "value": "binds"}]}, {"binder": "B5", "values": [{"measurement": "binding result", "setting": "[6]", "value": "binds"}]}, {"binder": "B6", "values": [{"measurement": "binding result", "setting": "[7]; tandem stem-loops", "value": "binds"}]}, {"binder": "B7", "values": [{"measurement": "binding result", "setting": "[7]; labile hairpin", "value": "binds"}]}, {"binder": "B8", "values": [{"measurement": "Kd", "setting": "[8]", "value": 87, "unit": "µM"}]}, {"binder": "B9", "values": [{"measurement": "apparent K (half saturation)", "setting": "[3]; two stem-loops", "value": "~10", "unit": "µM"}]}]}
